In patent US20220226381A1:
Read-outs that look alike come from different tables or passages of the source.

What was measured:
[1] = biological target: CD19 on CD19+ Raji B cells (UniProt P15391); assay: cell-based or functional assay
[2] = biological target: CD19 on CD19+ Raji B cells (UniProt P15391); assay: cell-based or functional assay; remark: listed apart in the source

Chain of UniProt P15391 (P15391 20-556 limits assumed): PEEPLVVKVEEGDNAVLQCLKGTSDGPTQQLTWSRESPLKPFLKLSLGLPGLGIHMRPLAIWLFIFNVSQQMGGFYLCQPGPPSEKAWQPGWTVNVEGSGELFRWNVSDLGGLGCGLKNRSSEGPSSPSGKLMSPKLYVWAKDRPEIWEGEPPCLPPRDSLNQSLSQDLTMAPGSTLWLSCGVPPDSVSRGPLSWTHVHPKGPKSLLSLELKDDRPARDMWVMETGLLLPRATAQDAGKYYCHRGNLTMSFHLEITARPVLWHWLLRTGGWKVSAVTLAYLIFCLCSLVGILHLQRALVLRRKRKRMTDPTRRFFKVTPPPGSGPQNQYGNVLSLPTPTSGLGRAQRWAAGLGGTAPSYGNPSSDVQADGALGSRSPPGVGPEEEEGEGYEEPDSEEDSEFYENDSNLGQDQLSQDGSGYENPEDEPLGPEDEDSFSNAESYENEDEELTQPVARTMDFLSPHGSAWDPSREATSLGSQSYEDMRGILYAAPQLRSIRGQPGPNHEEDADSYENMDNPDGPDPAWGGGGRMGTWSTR

anti-CD19 CAR (anti-CD19 CAR cassette as described in WO 2012/079000), expressed on transduced CD4+ T-cells
change in activated cells in the population (CD25 and CD69 staining, flow cytometry, 24 h co-culture) [1]: 0.9 to 84.8% | change in activated cells in the population (CD25 and CD69 staining, flow cytometry, 24 h co-culture) [2]: 3.9 to 12.1%
